Substrate in this data set: O=P(O)(O)O[C@@H]1[C@H](O)[C@H](O)[C@@H](OP(=O)(O)O)[C@H](OP(=O)(O)O)[C@H]1O
Description: purified protein. Particulars: 25 mM Tris-HCl pH 7.5, 1 mM MgCl2, 37°C, 30 min, IP3 0.0125-0.2 mM. Type of data set: biochemical, Glycine max.

In general, Km refers to the substrate concentration at which the rate is half of its maximum. As usually defined, the kcat is the maximal rate divided by the concentration of active sites.

B1: GmSAL1 (Glycine max) (protein)
chain: MPYEKEFAAAKKAATLAARLCKKVQKALLQSDVHSKSDKSPVTVADYGSQALVSFILERELPSEPFSLVAEEDSGDLRKESGQDTLKRITELVNDTLASEGSNSFSTLTTDDVLAAIDGGKSEGGSVGRHWVLDPIDGTKGFVRGDQYAIALALLDEGKVVLGVLACPNLPLASIGSNQQLSSSNEVGCLFFAKVGDGTYMQALGGSTQTRVHVCDIDNPEEASFFESFEAAHSSHDLSSSIAEKLGVKAPPVRIDSQAKYGALSRGDGAIYLRFPHKGYREKIWDHAAGSIVVTEAGGIAMDAAGNPLDFSKGKFLDVVSGIIVTNQKLKASLLRAVKEALNEKVSSL
notes: cloning primers encode N-terminal MPYEKEF and C-terminal KVSSL
B1: the Km was found to be 10.8 ± 0.1 µM and the kcat is 1.13 ± 0.217 s⁻¹.
